The domain aggregation screens of Martell et al. (2025)

assay: soluble fraction after stress (log2 fold change); higher = more stays soluble; pooled small domains, quantitative proteomics; conditions: stress: 50 degC
Outline: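 After stress at 50°C, the amount of each protein still soluble was measured. This was done on pooled custom libraries of small protein domains, using high-throughput quantitative proteomics. The figure given is a base-two log fold change and stands for aggregation propensity, with higher values meaning more protein stays in solution.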

“HMGKKIVERRNTILNMVNKYGTLDFPQLRDAFPDVSDVTLRKDLQYLDSTKQAIRTHGGIKSI” and “HMSSVTGMERFLSSGAVKGIGKTMAARIVEHFGTETMTVLESFPERLAEVPGIGAKKAEAIGQSYSEISD” are within 0.2 log units of each other in “soluble fraction (log2)” value: 0.0534 for the first, 0.174 for the second.

Going from “HMTQQNRDELYRRMIDAGWDQLVRNGIRSLRVEQVAAAVGIAKGTFYHFFDSKDDFIYAMLMENRQ” to “HMSLGPNAYGKPATALNILRETVMGKELFDHAFKTYSKRWMFKHPSPEDFFRTMEDASAVDLDWFWR”, the “soluble fraction (log2)” value rises from -3.07 to -0.239.

First: HMTLAEEFNNLNGKVITRETLESLLVKAEKEQNSTISNRIRKVLQAYTADTFLIELQHTESA
Second: HMPGRLSRREVEVIELTARGLPAAEMAVRLGISANTIEFHRRRIMQKLGVANAAEMVRRATELGW
The “soluble fraction (log2)” value of the first is higher: 0.0776 for the first, -2.1 for the second.

Going from “HMRRIADVVPEQLTREEAEELLETLAEQGEIHEEQALLARYILEQSLQGVAPEVEPLIRAKLLAGILMVY” to “HMKIDNIIIYITGGVKKEGVYELPDGSRISDAIEQAEGLKANADTSSINLAYKLEDGMKIKIPLQGEN”, the “soluble fraction (log2)” value rises from -1.69 to -0.0298.

First: HMPLLADLPNLLRKVLKQHPGRVVDVDLERGRQGREIYHVRVLQENGQVRGLFVDASTGELVS
Second: HMSKASLFFLFNHKDELYIVDNNHVQDVPKPRELIRRFSTIEQIREHALHLGLPIANDTARE
The “soluble fraction (log2)” value of the first is higher: -0.224 for the first, -0.723 for the second.

Going from “HMVTVPNYSDPRQYVEWGNANGITINRAVGDTIASMSGRVQDVRDSNGNSVIGKKVKKGSTVTVYIYFLK” to “HMPQKIVIQKGVVIKKRERSDAWQIYITVKGKKPIRKSANTDNVEKAKQMALTLFAEKNYKVENNLPIQ”, the “soluble fraction (log2)” value falls from -0.00985 to -1.18.

Going from “HMNILAPFWERFGLSAFAAGNYDRAEGYFRKLEQKDPNSMSVLRNLGLILMAKGDAEGAEAYLLREEKL” to “HMLFKNASGTVVSRIQSQVDGQINIRTGSGNAPDYAFVAKPDGAVELYHNGTKQFETGSSGVLLP”, the “soluble fraction (log2)” value rises from -0.67 to -0.274.

Compared with “HMKRDYELPAFIETYLKKNHVAIDTKSAAMIAEHIGADLSRLISELDKVMISLPDDDRRVTPDVVEREI”, “HMPGTAAQARQLKAWLKENGEKPGAALPALQKAQEIYGYVPREVQQLIADALHKPLTEIYGVSTFYSQFNL” is lower in “soluble fraction (log2)” value: -0.00533 for the first, -0.573 for the second.

Going from “HMDVFPDESLKAWLIEMGFKLDQKKMNVFTVLRRMLLQTAPSVKEFRILEIVLQQSRRKLKELNDLKKS” to “HMASDYYTTTANLNLRSGAGTTYGSLIIIEKGDTVKLLENVNDHWVKIQYDDKIGYVAMSYLLPIE”, the “soluble fraction (log2)” value falls from -0.0335 to -0.484.

“HMSGTYIATVEAGSLDIYKSMTSNETIGKASRGDVFQILEDMGSGYARVSYNDVEGYMSIKTGDASIEEL” and “HMEEEEITIHIIGEVKYPGIVILKTGQRIIDAIDAAGGETEEADLNKINLAQLLSDGDKIYVPSINDN” are within 0.2 log units of each other in “soluble fraction (log2)” value: -0.203 for the first, -0.0785 for the second.

First: HMSSWEDNFSYWIRNVAETLDKDLLNVANSKLEKIIINAALDQTNGKKNEAAILLGLGRNTLAKKIKELG
Second: HMEPLPDIPRGTRVSHQTAPADGDMPERRETGWTMTEPIRAQDGLAYVGVSVYGRGVVMLPVNSLSII
The “soluble fraction (log2)” value of the first is lower: -0.858 for the first, -0.319 for the second.

Going from “HMKSLDDVISKFRPTGSENKIDFRKRVISEIHAQGFFKIKGSVNHVAKALGVTRYTVYNYLDKLND” to “HMPIMDSDDKYEALGIPQEWIAVVKKAGYQTVEALKAVENPNKLHQELSVMNKKEKLGLAGLTPEMVKAWL”, the “soluble fraction (log2)” value rises from -3.23 to 0.342.

“HMKGHQASTTWISERVKDIIKEDPTLGARKLQKRLEIHYNIELSYFKVWSGKNLQWMIFMVL” and “HMAPPTAEFFAHLPAEALSAVRRSVEEGNARGIDEAILRVETLDGEAGRVLRGLAARYEYGRILELTQR” are within 0.2 log units of each other in “soluble fraction (log2)” value: 0.022 for the first, 0.117 for the second.

Compared with “HMAPELRSDAQMRRLWALAKENGLDEVGFRAFISDATGREVESTKSLTATEAHRLIEELEAP”, “HMWSGEPFLDELRHADTLLETDPEAALAEYRALADKGSAAAMMALGNAYASGSHVARDEGEAEHWYRRAA” is higher in “soluble fraction (log2)” value: -0.388 for the first, 0.0547 for the second.

Going from “HMEKYNIIVDNEDNFRLDKIIALNMKDLSRTMIQEMINRGLVSVNGKITKASYKTKLNDQIEIMIED” to “HMDVTSLDMLRFLMDQHGLRQQDLSELGSQGVVSEILAGKRELNLRHIGALARRFKVPPEVFLPA”, the “soluble fraction (log2)” value falls from -0.28 to -0.631.

Compared with “HMHSESAAHQRTSVELFARIPETGNLQSAQRHFDVINQFGRFPHRNKILQRPSSEQEEAFLRQPGSG”, “HMVPAMGSLTLIKGGVNLRNAPGGLTIAQLDRGLVLSYTKFVQKDGYTWYLVNSPKGTGYVRSDVVQLGS” is lower in “soluble fraction (log2)” value: 0.0792 for the first, -0.251 for the second.

Going from “HMLVKKYTEEETGRQAELSKQLAELSKAYYNTGNSMVDDAVFDKLRDELSSLEKESGFAYDISPNVS” to “HMKFNRPMSEILQEWENKLGTTSDAELAGLIGVVTMTINRWRKNETKPDLSALNRYDRIVNLVVNNIKQL”, the “soluble fraction (log2)” value rises from -0.953 to -0.432.

First: HMITEQEFQRVAAYVKNKAGINLNEKKVLVQGRLDSYMQRKGYSSYDEFMDRVERFPTGPEAEDLMNALTT
Second: HMKYSQAMIAQIIKHFHLPNNTVVTGEDVDAILLRSVDGGDGIYGGDVVSIWKYYKKQNDIQEIVT
The “soluble fraction (log2)” value of the first is higher: 0.0575 for the first, -0.645 for the second.

Compared with “HMQNYTTIIGVIELRLNDISYDNVRKRYHIGRSGITLIMDRYRDSGLSLEDLKQMTPEKVVDLFYPR”, “HMKNPLIIGMTKDKIIELIGMPDNIKFLDSSLSKSEVWNYDKFGKKLYIKDEKLYQIENIEE” is higher in “soluble fraction (log2)” value: -2.3 for the first, 0.016 for the second.

Compared with “HMADPRFHSEIMLSKIESLLSGKADSDVSNYSIQGRSLTKMSLQELMDARESYDGLVKSEKAKLDAKY”, “HMIMNEYEELRDRYLIGQIWKIGDLIEAKGIEGKIIQRGTNYVTFNDNNGKVHKAWLHEIKYEQ” is lower in “soluble fraction (log2)” value: 0.0495 for the first, -0.343 for the second.

Compared with “HMEKGIVSNKTDKGYGFIRSSTGESIFVHINNVGKEAYEQLAKGSRVLFDYEVTDRGKRATKVMLEPSES”, “HMQDTIDLVIQVNGKLRGQMNVPKDTDRATIEQLAINLENVQKIVAGNAIKKIIIVPGRLINIVVSKNL” is lower in “soluble fraction (log2)” value: 0.0488 for the first, -0.925 for the second.

Compared with “HMKREETLKALATKNANYVARSGRRYSFEPMNPYERRIIHTAVQEIEGVTSRSIGSGMDRRVLIEPEGGV”, “HMNQDIIEIGNNIQKIRKKNGISQSVLAEKIDVAGNSIYRMEGATTVMGVDKLINIADALNTSPMDILPAR” is higher in “soluble fraction (log2)” value: -0.194 for the first, 0.13 for the second.

Compared with “HMRSPVDALSNRELQVLQMVGRGLSSRQVAEALHLSVKTVEAHRQRIKGKLGLRTGAQLVQFAANWVTG”, “HMLPANGEAIYHYLASGAIKGVGPVTAQRIVDKFGEDTFDVLENNPLWLAEIKGITRKTAENIGAAFAAQF” is higher in “soluble fraction (log2)” value: -1.27 for the first, ≥ 0.62 for the second.

First: HMIAANMTISQRIAAALAEYGVMSVKDIAQEVLGATDKKDTEKIRVTLTRDHGKRFRTYSDGTWSLKDWRP
Second: HMYLNYQTIGKRIRLLRKQQHLTQMTLAEMVDKSPTYISLVENGQKGPSLETLIDVANALKVTMDVLLAEY
The “soluble fraction (log2)” value of the first is higher: -1.12 for the first, -4.39 for the second.

Compared with “HMESYNIVEQVLTKKILSKGNTLAKLSNEFDGLVMLVIRGDEFIIPNGETLLFEKDILVINNGP”, “HMHNQIGDKIRELRTRSNLTQADLGKLVGVSMQAVSKWERGGTPDIDVLLSVAKYFNISLDEMVGRT” is higher in “soluble fraction (log2)” value: -1.72 for the first, -1.08 for the second.

Going from “HMDVAAQITYAMRTMGVAPIPRNYELFYEAYIGSNPALTKELAALGSKATQEELDELGQQYF” to “HMAKRMRNPNGYGSIVKLSGNRRNPYMVKVNTHMDERYYPVYDILGYYPTWADASIALAKYNDDPYNVS”, the “soluble fraction (log2)” value rises from -1.93 to -0.453.

“HMDASSAVQFGSLLRDARRRQGLSQAELGGDKYSGSYISHLESGRRVATPEVIEFLSRRLGVSPLEWGVS” and “HMENPMIEQLKQFIEAQGLTQGQLAAKLGVSTATVNQYLQGKYKGDTAALDAKAAQLMARSREK” are within 0.2 log units of each other in “soluble fraction (log2)” value: -0.0679 for the first, 0.103 for the second.

For “HMVFSKEELLFNSDSLLSLYPNDNKLLETILSEKIDHAVKNNDMSMYKEILVIDPKNPLANYHLLM”, the “soluble fraction (log2)” value was 0.0579.
